Results taken from patent US20230382979A1 (ADAPTIVE BIOTECHNOLOGIES, published 2023).
Changes are numbered by the printed parent chain.

B1: antibody 2025 (antibody, V domains shown)
VH: QVQLVQSGAEVKKPGASVKVSCKVSGYTLIELSMHWVRQAPGKGLEWMGGFDPEDVETIYAQKFQGRVTMTEDTSTDTAYMELSSLRSEDTAVYYCATAYAVQWRGMIGYWGQGTLVTVSS
VL: QSALTQPASVSGSPGQSITISCTGTSSDVGSYNLVSWYQQHPGKAPKLMIYEVSKRPSGVSNRFSGSKSGNTASLTISGLQAEDEADYYCSSYAGSSTFSYVFGTGTKVTVL
B2: antibody 2080 (antibody, V domains shown)
VH: QVQLQQWGAGLLKPSETLSLTCAVYGGSFSGYYWSWIRQPPGKGLEWIGRINDIGSTDYNPSLKSRVTISVDTSKNQFSLKLTSVTAADTAVYYCAREPFDSEGTFDYWGQGTLVIVSS
VL: DIQMTQPPSTLSASVGDRVTITCRASQSISRWLAWYRQKPGKAPKLLIYDASSLQSGVPSRFSGSGSGTEFTLTISSLQPDDLATYYCQQYNTYPYTFGQGTKLEIK
B3: antibody 1439 (antibody, V domains shown)
VH: QVQLQESGPGLVKPSETLSLTCTVSGDSISTYYWSWIRQPPGKGLEWIGYIHYSGSTNYNPSLKSRVAVSVDTSKNQFSLKLSSVTAADTAVYYCARGGGVFGVVINFDYWGQGILVTVSS
VL: NFMLTQPYSVSESPGKTVTISCTRSSGSIASNYVQWYQQRPGSAPTTVIYEDNQRPSGVPDRFSGSIDSSSNSASLTISGLKTEDEADYYCQSRDSSNPVVFGGGTKLTVL
B4: antibody 2075 (antibody, V domains shown)
VH: QVQLVQSGAEVKKPGSSVKVSCTASGGTFSIYAFSWVRQAPGQGLEWMGGIIPISGTAGYAQKFQGRVTITADESTSTAYMELSSLRSEDTAIYYCARKYRYCSGSRCYTYFDYWGQGTLVTVSS
VL: DIQMTQSPSSLSASVGDRVTITCRASQSISSFLNWYQQKPGKAPKLLIYAASSLQSGVPSRFSGSGSGTDFTLTISSLQPEDSATYYCQQSYSTITFGQGTRLEIK
B5: antibody 1213 (antibody, V domains shown)
VH: QMQLVQSGAEVKKTGSSVKVSCEASENTFTNRYLHWVRQAPGQALEWMGWITPFQGNTHYAQKFQDRVTITRDRSMNTVYMELSSLRSEDTAIYYCASGGQYGPGSYYFEFWGQGTLVTVSS
VL: EIVMTQSPATLSVSPGERATLSCRASQSIRNNLAWYRQKPGQAPRLLIYGASTRAAGVPARFSGSGSGTEFTLTISSLQSEDFAVYYCQQYINWPPLTFGGGTKVEIK
B6: antibody 1227 (antibody, V domains shown)
VH: B5 VH with E26G, N27Y, H59N, R74M, I93K, P104A, F109L, F111D
VL: B5 VL with I29V, N31S, A56T, K104R
B7: antibody 2598 (antibody, V domains shown)
VH: QVQLQESGPGLVKPSGTLSLTCVVSGGSISSSNWWSWVRQPPGKGLEWIGETFHSGSFNYNPSLKSRVTISVDKSKNQFSLKLSSVTAADTAIYYCATTRVGYEGHFYYYGMDVWGQGTTVTVSS
VL: DIQMTQSPSSVSASVGDRVTITCRASQGISSWLAWYQQKPGKAPKLLIYAASSLQSGVPSRFSGSGSGTDFTLTISSLQPEDFATYYCQQANRFPWTFGQGTKVEIK
B8: antibody 1231 (antibody, V domains shown)
VH: QVQLVQSGSELKKPGASVKVSCTGYGYTFTSYAMNWVRQAPGQGLEWMGWINTNTGHPAYAQGFTGRFVFSLDSSVSTAYLQISSLKAEDTAVYYCATTIRAGGYFDFWGQGTLVTVSS
VL: DIQLTQSPSFLSASVGDRVTITCRASQGISSYLAWFQQKPGKAPKLLIYVVSILQSGVPSRFSGSGSGTEFTLTISSLQPEDFATYYCQQLNSYPYTFGQGTKLEIK
B9: antibody 2646 (antibody, V domains shown)
VH: QVQLVQSGAEVKKPGASVKVSCKVSGYTLTELSIHWVRQAPGKGLEWMGGFDPEDAETIYAQKFQGRVTMTEDTSTDTAYMELSSLRSEDTAVYYCATATAVAGTVFNYQYHYGLDFWGQGTTVTVSS
VL: not shown
B10: antibody 937 (antibody, V domains shown)
VH: EVQLVESGGGLVQPGRSLRLSCAASGFTFDDYAMHWVRQAPGKGLEWVSGISWNSGSIGYADSVKGRFTISRDNAKNSLYLQMNSLKPEDTALYYCAKSTTSCYNGSQCPTKRPKPLESWGQGTLVIVSA
VL: DIQMTQSPSTLSAFVGDRVTITCRASQSINNWLAWYQQKPGEVPKLLIYKASSLENGVPSRFSGSGFGTEFTLTISSLQPDDFAIYYCQQYYSHSHTFGQGTKLEIK
B11: antibody 2432 (antibody, V domains shown)
VH: QVQLVQSGAEVKKPGSSVKVSCKASGDTFSSYAISWVRQAPGQGLEWLGGIIPIFGSADYAQKFQGRVTITADEFTSTAYMELSSLRSEDTAVYFCAREKYGDYGEGPLYNFDYWGQGTLVTVSS
VL: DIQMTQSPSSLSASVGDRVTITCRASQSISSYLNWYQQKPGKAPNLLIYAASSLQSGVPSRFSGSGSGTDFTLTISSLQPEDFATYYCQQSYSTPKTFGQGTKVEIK
B12: antibody 1679 (antibody, V domains shown)
VH: QITLKESGPTLVKPTQTLTLTCTFSGFSLSTVGVGVAWIRQPPGKALEWLALIYWDDDKRYSPSLKSRLTITKDTSKNHVVLTMTNMDPVDTATYYCAHHIIAALVDVWGKGTTVTVSS
VL: QSALTQPASVSGSPGQSITISCTGTSSDVGGNNYVSWYQHHPGEAPKLMIYEVSNRPSGVSNRFSGSKSGNTASLTISGLQAEDEADYYCSSYTTSSTLVVFGGGSKLTVL
B13: antibody 2050 (antibody, V domains shown)
VH: QVQLVQSGAEVKKPGASVKVPCKVSGYTFTDHFIHWVRQAPGQGLEWMGWISPNSGGRNYTQKFQGRVTLTRDTAITTVHMDLSSLTPDDTAVYYCARDVRWAQLQGGFDLWGQGTMVTVSS
VL: QSALTQPASVSGSPGQSITISCTGTSSDVGSYNLVSWYQQHPGKAPKLMIYEVSKRPSGVSNRFSGSKSGNTASLTISGLQADDEADYYCCSYAGDNNFLFGGGTSLTVL
B14: antibody 2020 (antibody, V domains shown)
VH: QVQLVQSGAEVKKPGASVKVSCKASGYTFTDYFMHWVRQAPGQGLEWMGWVNPLSGGTNFAQKFQGRVTMTSDTSITTVYMELSRLRSDDTAVYYCARDPPLYSSTYGMDVWGQGTTVTVSS
VL: QSALTQPASVSGSPGQSITISCTGTSSDVGAYNYVSWYQQHPGKAPKLMIYDVSDRPSGVSNRFSGSKSGNTASLTISGLQAEDEADYYCSSYTISSSVVFGGGTKLTVL
B15: antibody 767 (antibody, V domains shown)
VH: QVQVVQSGAEVKKPGASVKVSCTASGHTFTGYAIHWVRQAPGQRLEWMGLINAGGIYRTYSQRFQGRVTITRDTSASTAYMELTGLTSEDTAVYYCARANYGSGSFSDHWGQGTLVTVSS
VL: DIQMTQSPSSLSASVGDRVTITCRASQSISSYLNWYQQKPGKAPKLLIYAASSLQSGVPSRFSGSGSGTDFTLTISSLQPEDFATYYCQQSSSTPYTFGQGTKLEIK
B16: antibody 941 (antibody, V domains shown)
VH: QVQLVQSGAEVKKPGSSVKVSCKASGGTFSNSAINWVRQAPGQGLEWMGGIIPLFGAADYAQKFQARVTITADKSTTTSYMELSSLRSEDTAVYYCARDTLEHDDVWGNFRLSLPLSFWGQGTLVTVSS
VL: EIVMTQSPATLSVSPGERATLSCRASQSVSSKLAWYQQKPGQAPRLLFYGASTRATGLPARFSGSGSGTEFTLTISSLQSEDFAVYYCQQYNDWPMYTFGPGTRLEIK
B17: antibody 935 (antibody, V domains shown)
VH: EVQLVESGGGLVQPGGSLRLSCAASGFTVSSNYMSWVRQAPGKGLEWVSVIYSGGSTFYADSVKGRFTISRDNSRNTLYLQMNSLRAEDTAVYYCARDWGEFFFDFWGQGALVTVSS
VL: EIVLTQSPGTLSLSPGERATLSCRASQTISSSYLAWYQQKPGQAPRLLISGASSRATGIPDRFSGSGSGTDFTLTISRLEPEDFAVYYCQQYGSSPRTFGQGTNVEIK
B18: antibody 1671 (antibody, V domains shown)
VH: EVQLVESGGGLVKPGGSLRLSCAASGFTFSTYNMNWVRQAPGKGLEWVSSISSNSNYIYYADSMKGRFTISRDNAKNSLYLQMNSLRAEDTAVYYCARDMDPLPYFDWLLYAFDVWGQGTMVTVSS
VL: B17 VL with T28S, I29V, S31G, S50Y, S95P, P96I, R97F, Q101P, N104K, E106D
B19: antibody 2606 (antibody, V domains shown)
VH: EVQLVESGGGLVKPGGSLRLSCAASGFTFSSYSMNWVRQAPGKGLEWVSSITSSSGYMYYADSVKGRFTISRDNAKNSLYLQLNSLRAEDTAVYYCAKDSAFDLWEVRSYYYVMDVWGQGTTVTVSS
VL: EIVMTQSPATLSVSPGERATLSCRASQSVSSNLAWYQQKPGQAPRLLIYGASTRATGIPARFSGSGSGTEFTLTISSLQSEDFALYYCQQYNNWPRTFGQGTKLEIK

Key:
[1] = target: T1, Receptor-binding domain (RBD) of the SARS-CoV-2 spike protein, WA01/2020 strain (SARS-CoV-2, WA01/2020 strain, UniProt P0DTC2 319-541); assay: dose-response ELISA on coated antigen
[2] = target: SARS-CoV-2 spike protein on live virus, strain USA-WA1/2020 (SARS-CoV-2, WA01/2020 strain, UniProt P0DTC2 14-1273); assay: cell-based or functional assay
[3] = target: T1, Receptor-binding domain (RBD) of the …; assay: SPR (Biacore 8K), antigen immobilized, antibody injected
[4] = target: T1, Receptor-binding domain (RBD) of the …; assay: ELISA, antibody blocks RBD binding to human ACE2
[5] = target: SARS-CoV-2 spike protein, B1.1.7 (alpha variant), borne on lentiviral pseudovirus (SARS-CoV-2, B1.1.7); assay: cell-based or functional assay

Binder	EC50 [1] [nM]	Live Neut, WA1/2020 IC50 (pM) [2] [pM]	Kd [3] [nM]	IC50 [4] [nM]	Pseudo Neut, B1.1.7 IC50 (pM) [5] [pM]
B1	0.113	118	7.13	–	–
B2	–	169	–	–	–
B3	0.0099	–	0.0176	0.117	–
B4	0.073	12	< 0.0007	0.93	~7
B5	0.051	2590	1.72	7.74	–
B6	0.107	1490	2.74	14.5	–
B7	–	586	–	–	–
B8	0.018	9510	2.54	3.69	–
B9	–	19	–	–	–
B10	–	140	–	–	–
B11	–	26	–	–	–
B12	0.003	19	1.01	0.07	–
B13	0.025	36	0.115	0.727	200
B14	0.088	14	0.0011	1.41	13
B15	3.47	1730	24.3	20.9	–
B16	0.024	24	0.062	0.96	533
B17	0.024	64	0.406	0.83	1170
B18	–	9	–	–	–
B19	–	474	–	–	–
